Laboratory results from PMC11926245, “Structural recognition and stabilization of tyrosine hydroxylase by the J-domain protein DNAJC12” (Nature Communications, 2025).
pKd: −log10 of the molar value.

Biological target: Tyrosine hydroxylase, wild-type (hTH1) (human) (UniProt P07101)
Assay: BLI; biotinylated TH or TH variant immobilised on streptavidin sensors; DNAJC12 or variant 0.01-4 μM in solution; PBS, 0.02% Tween-20, 0.5 mg/mL BSA, 25 °C; responses fitted to a one-site hyperbola

Chain of DNAJC12(1-107) (Q9UKB3 1-107): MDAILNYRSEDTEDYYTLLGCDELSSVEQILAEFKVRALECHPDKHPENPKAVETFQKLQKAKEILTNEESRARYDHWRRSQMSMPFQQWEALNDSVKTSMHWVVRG

DNAJC12(1-107) (from UniProt Q9UKB3-1 1-107) (domain or fragment)
pKd: 5.40
